Source: PMC11863921 (BMC Biology, 2025)

Tests used:
[1] = system: ovarian fragments of A. cf. solaris; assay: In vitro spawning assay with ovarian fragments of A. cf. solaris; conditions: 1 h, semi-quantitative
Source text: Adult A. cf. solaris were collected from the Great Barrier Reef by Pacific Marine Group divers associated with the Great Barrier Reef Marine Park Authority (GBRMPA) before being transported to the University of the Sunshine Coast aquarium facility. Animals were briefly maintained in a re-circulating protein-skimmed and aerated saltwater system of approximately 1500 L. The animals used were approximately 25–55 cm in diameter and kept unfed for the duration of the experiment. The gender and ovarian maturation stage was determined by using a minor gonad tissue biopsy technique and, thereafter, animals were individually segregated in a flowthrough aerated tank filled with approximately 55 L of filtered seawater for a minimum of 24 h to recover and acclimatize.
AsoRGP1 and AsoRGP2 were synthesized as described previously. In addition, a modified form of AsoRGP2 was synthesized in which the N-terminal residue of the A-chain (glutamine, Q) was substituted with pyroglutamate (pQ), recognizing the possibility of this potential post-translational modification. […] In vitro spawning assays using ovarian fragments were performed following procedures described previously. In brief, the ovaries were excised and cut using scissors into small fragments containing only a few lobes. The ovarian fragments were then incubated in artificial seawater containing RGP-type peptides at a range of concentrations (2 × 10^−10–2 × 10^−6 M) for 1 h. As a control experiment, ovarian fragments were incubated in artificial seawater alone. The samples were examined to determine whether or not in vitro spawning had occurred and were scored as follows: (+ + +) spawning occurred and most oocytes had matured; (+ +) about 50% of oocytes had matured, ( +) a few oocytes had matured and ( −): no spawning occurred. […] Means ± standard error of mean (SEM) were determined from four separate assays using ovaries from four different animals.

[2] = biological target: Acanthaster cf. solaris relaxin family peptide receptor/leucine-rich repeat G protein-coupled receptor 3, N-terminally modified (prolactin signal peptide, FLAG tag) (Acanthaster cf. solaris)
[3] = biological target: Asterias rubens relaxin family peptide receptor/leucine-rich repeat G protein-coupled receptor 3 (isoform X2) (Asterias rubens)
[4] = biological target: modified ArubRXFP/LGR3 (N-terminal region with the predicted internal signal peptide replaced by the prolactin precursor signal peptide) (Asterias rubens)
AsolRXFP/LGR3 = biological target: T1, AsolRXFP/LGR3 (Acanthaster planci, UniProt A0A8B7XXQ8); assay: CRE reporter gene assay in CHO cells stably expressing AsolRXFP/LGR3; format: cell-based, A. cf. solaris; conditions: CHO-AsolRXFP/LGR3 cells, increasing concentrations
T1 sequence (A0A8B7XXQ8 1-847): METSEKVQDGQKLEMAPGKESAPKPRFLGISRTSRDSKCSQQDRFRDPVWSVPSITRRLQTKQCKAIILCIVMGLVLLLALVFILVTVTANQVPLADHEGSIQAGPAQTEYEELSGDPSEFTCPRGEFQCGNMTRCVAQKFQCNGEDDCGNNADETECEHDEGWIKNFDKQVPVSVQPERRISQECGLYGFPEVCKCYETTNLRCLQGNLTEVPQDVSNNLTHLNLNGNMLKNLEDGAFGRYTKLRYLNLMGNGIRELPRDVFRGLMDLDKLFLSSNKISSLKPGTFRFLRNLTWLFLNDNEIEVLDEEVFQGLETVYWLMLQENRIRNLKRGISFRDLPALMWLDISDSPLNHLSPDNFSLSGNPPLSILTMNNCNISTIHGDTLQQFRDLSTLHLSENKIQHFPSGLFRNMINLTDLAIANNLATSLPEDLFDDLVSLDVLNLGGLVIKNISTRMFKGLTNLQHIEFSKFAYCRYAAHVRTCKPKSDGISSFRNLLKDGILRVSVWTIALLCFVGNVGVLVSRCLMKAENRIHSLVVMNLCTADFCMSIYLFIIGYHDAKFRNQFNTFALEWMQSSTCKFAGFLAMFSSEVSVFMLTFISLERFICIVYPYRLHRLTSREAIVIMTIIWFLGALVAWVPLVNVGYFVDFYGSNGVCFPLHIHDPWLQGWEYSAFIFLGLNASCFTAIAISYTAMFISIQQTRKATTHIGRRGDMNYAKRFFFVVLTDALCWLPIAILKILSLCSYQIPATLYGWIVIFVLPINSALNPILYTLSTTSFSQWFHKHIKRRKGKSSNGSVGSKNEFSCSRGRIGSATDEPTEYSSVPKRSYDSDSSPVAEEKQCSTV
Procedure: Human embryonic kidney (HEK) 293T cells were grown in complete Dulbecco’s modified Eagle medium (DMEM; Gibco) and Chinese hamster ovary (CHO) cells in complete DMEM/F12 (Gibco). Media was supplemented with 10% fetal bovine serum, 1% penicillin/streptomycin, and 1% L‐glutamine (complete media; All from Gibco). HEK-293T cells were transfected with LipofectAMINE 2000 (Invitrogen) and CHO cells with CHO TransIT and CHO-Mojo (Mirus), both according to the manufacturer’s instructions.
CHO and HEK293T cells stably expressing AsolRXFP/LGR3 were generated by lentiviral transduction. HEK293T cells were plated in 10 cm dishes for transfection with pLenti X1-Ef1α-COT-RXFP-like 2-IRES-GFP along with the lentiviral packaging and envelope plasmids pMDL, pRSV‐Rev, and pCMV‐VSV‐G, using Lipofectamine 2000. The following day, media containing lentivirus was harvested and filtered through a 0.45 μm syringe filter. Fresh CHO and HEK293T cells in 10 cm plates were transduced by replacing the cell culture media with the filtered media containing lentivirus, mixed with 4 μg/mL hexadimethrine bromide (Polybrene) to increase transduction efficiency. Three rounds of transduction were performed over 32 h, before cells were allowed to recover for three days in complete media. Transduced cells were sorted from non-transduced cells using the GFP reporter by fluorescence-activated cell sorting (FACS), using a Becton Dickinson FACSAria III as previously described. Single, live cells with low GFP expression were selected to represent low AsolRXFP/LGR3 expression and were subsequently grown to confluency in a T175 flask and cryopreserved.
The ability of the A. cf. solaris receptors to respond to A. cf. solaris RGP1 and RGP2 peptides was tested using a pCRE β-galactosidase reporter gene assay in CHO cells stably expressing AsolRXFP/LGR3 or HEK-293T cells transfected with AsolRXFP/LGR4 (long) or AsolRXFP/LGR4 (short), as described in detail previously. Importantly, the pCRE β-galactosidase reporter gene assay measures both Gs and Gq activation downstream of GPCR activation by monitoring CREB-mediated gene transcription. Cells were seeded in 96 well plates and were left to grow overnight at 37 °C in an incubator with 5% CO2. The next day the cells were transfected with different amounts of the pCRE reporter gene DNA [57] and/or pcDNA3.1 receptor constructs, as described above, and were left to grow overnight in an incubator. Triplicate wells in each plate were transfected with the equivalent amount of pCRE reporter gene DNA and pcDNA3.1 without a receptor-encoding insert as the background CRE activity control. The next day cells were exposed in triplicate wells to increasing concentrations of peptides diluted in media for 6 h at 37 °C in an incubator. Triplicate parallel wells contained 5 µM forskolin and blank media as positive and negative controls, respectively. At the end of the incubation period, the media was aspirated, and the plate was stored at − 80 °C until development. Plates were thawed for the development of β-galactosidase activity, as described previously, with absorbance being read at 570 nm on an Epoch 2 microplate reader. The data were analyzed as the percentage of the response induced by 5 µM forskolin and pooled followed by fitting to a three-parameter sigmoidal dose–response curve using GraphPad Prism 10. Experiments were performed at least three times with triplicate determinations in each assay (Additional file 17: Dataset S10).

## Acanthaster cf. solaris Relaxin-like gonad-stimulating peptide 2 modified with pyroglutamate replacing glutamine at the N-terminus of the A-chain [Asol-pQ-RGP2]
[1]; compared with RGP1 or unmodified RGP2
  relative potency in inducing shedding of mature eggs / spawning: less potent than AsolRGP1 and AsolRGP2
[1]; compared with RGP1 or unmodified RGP2, listed as Asol-pQ-RGP
  relative potency in inducing shedding of mature eggs / spawning: less potent than unmodified AsolRGP2

## Acanthaster cf. solaris relaxin-like gonad-stimulating peptide 1 (ligand)
[2]
  pEC50 of CRE reporter gene activation in CHO-AsolRXFP/LGR3 cells: 7.8 pEC50
  potency (EC50) of CRE reporter gene activation in CHO-AsolRXFP/LGR3 cells: 16 nM

## Asterias rubens relaxin-like gonad-stimulating peptide 2 (ligand)
[3]
  EC50 of peptide-induced luminescence (GFP-apoaequorin G5A, chimeric G-protein GqS5) in CHO-K1 cells transfected with ArubRXFP/LGR3, 10^-14 to 10^-5 M: 383 nM
[4]
  EC50 of peptide-induced luminescence (GFP-apoaequorin G5A, chimeric G-protein GqS5) in CHO-K1 cells transfected with modified ArubRXFP/LGR3: 510 nM

## recombinant human relaxin-2 [H2 relaxin, reference compound]
AsolRXFP/LGR3
  cAMP activity / CRE reporter gene activation: No response
